According to article PMC8320243 (Circulation research, 2021):
Numbering of substitutions follows the chain as printed. In names and notes the source's numbering stands.

B1: cMyc-tagged RyR2 N-terminus (NT, residues 1-906), wild type (domain or fragment, UniProt Q92736 1-906, looked up)
chain: MADGGEGEDEIQFLRTDDEVVLQCTATIHKEQQKLCLAAEGFGNRLCFLESTSNSKNVPPDLSICTFVLEQSLSVRALQEMLANTVEKSEGQVDVEKWKFMMKTAQGGGHRTLLYGHAILLRHSYSGMYLCCLSTSRSSTDKLAFDVGLQEDTTGEACWWTIHPASKQRSEGEKVRVGDDLILVSVSSERYLHLSYGNGSLHVDAAFQQTLWSVAPISSGSEAAQGYLIGGDVLRLLHGHMDECLTVPSGEHGEEQRRTVHYEGGAVSVHARSLWRLETLRVAWSGSHIRWGQPFRLRHVTTGKYLSLMEDKNLLLMDKEKADVKSTAFTFRSSKEKLDVGVRKEVDGMGTSEIKYGDSVCYIQHVDTGLWLTYQSVDVKSVRMGSIQRKAIMHHEGHMDDGISLSRSQHEESRTARVIRSTVFLFNRFIRGLDALSKKAKASTVDLPIESVSLSLQDLIGYFHPPDEHLEHEDKQNRLRALKNRQNLFQEEGMINLVLECIDRLHVYSSAAHFADVAGREAGESWKSILNSLYELLAALIRGNRKNCAQFSGSLDWLISRLERLEASSGILEVLHCVLVESPEALNIIKEGHIKSIISLLDKHGRNHKVLDVLCSLCVCHGVAVRSNQHLICDNLLPGRDLLLQTRLVNHVSSMRPNIFLGVSEGSAQYKKWYYELMVDHTEPFVTAEATHLRVGWASTEGYSPYPGGGEEWGGNGVGDDLFSYGFDGLHLWSGCIARTVSSPNQHLLRTDDVISCCLDLSAPSISFRINGQPVQGMFENFNIDGLFFPVVSFSAGIKVRFLLGGRHGEFKFLPPPGYAPCYEAVLPKEKLKVEHSREYKQERTYTRDLLGPTVSLTQAAFTPIPVDTSQIVLPPHLERIREKLAENIHELWVMNKIELGWQYGP
B2: cMyc-tagged RyR2 N-terminus (NT, residues 1-906) with R420Q (domain or fragment, UniProt Q92736 1-906, looked up)
chain: B1 chain with R420Q

Target: the molecule itself
Assay: cross-linking

Protein	stoichiometry N
B1	4
B2	4
